The record followed here is patent US20050287542A1.

Assay [1] addresses HisKIX (His-tagged CBP KIX domain) (UniProt P45481). Nature of the assay: fluorescence polarization at 325 µM HisKIX.
Assay [2] has as its target catalytic subunit of cAMP-dependent protein kinase (PKA). Nature of the assay: cell-based or functional assay.
For assay [3], the target named is full-length p300 (exogenous, CMV expression vector). The assay is described as follows: cell-based or functional assay.
Assay [4] addresses endogenous CBP/p300 in HEK293 cells. Nature of the assay: cell-based or functional assay.
The target of assay [5] is HisKIX (His-tagged CBP KIX domain) (UniProt P45481). Nature of the assay: fluorescence polarization at 150 µM HisKIX.
A further assay deals with CBP KIX variant Y658F (UniProt P45481). Nature of the assay: fluorescence polarization.
A further assay has as its target CBP KIX variant L599A (UniProt P45481). Nature of the assay: fluorescence polarization.
A further assay has as its target CBP KIX variant L603A (UniProt P45481). Nature of the assay: fluorescence polarization.
For the next assay, the target named is CBP KIX variant K662A (UniProt P45481). Nature of the assay: fluorescence polarization.
The target of another assay is CBP KIX variant I657A (UniProt P45481). Nature of the assay: fluorescence polarization.
The target of the next assay is CBP KIX variant Y658A (UniProt P45481). Nature of the assay: fluorescence polarization.
Assay [6] concerns the target GST-KIXY650A (Y650A variant of CBP KIX) (UniProt P45481). The assay is described as follows: fluorescence polarization.
In the next assay the target is CBP KIX variant Q661A (UniProt P45481). The assay is described as follows: fluorescence polarization.
Assay [7] concerns the target CBP KIX variant LL652-3AA (UniProt P45481). Nature of the assay: fluorescence polarization.
In a further assay the target is CBP KIX variant E655A (UniProt P45481). The assay is described as follows: fluorescence polarization.
For assay [8], the target named is CBP KIX variant Y650A (Example 20) (UniProt P45481). The assay is described as follows: fluorescence polarization.
In the next assay the target is CBP KIX variant I660A (UniProt P45481). Nature of the assay: fluorescence polarization.
The next assay concerns the target CBP KIX variant K606A (UniProt P45481). Nature of the assay: fluorescence polarization.

Sequence of CBP KIX variant E655A (P45481 586-665 E655A limits assumed): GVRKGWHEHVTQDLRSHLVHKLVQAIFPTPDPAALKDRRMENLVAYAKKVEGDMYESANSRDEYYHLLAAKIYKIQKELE
Sequence of CBP KIX variant L603A (P45481 586-665 L603A limits assumed): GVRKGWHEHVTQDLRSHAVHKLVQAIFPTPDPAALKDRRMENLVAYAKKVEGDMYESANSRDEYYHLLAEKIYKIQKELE
Sequence of CBP KIX variant K662A (P45481 586-665 K662A limits assumed): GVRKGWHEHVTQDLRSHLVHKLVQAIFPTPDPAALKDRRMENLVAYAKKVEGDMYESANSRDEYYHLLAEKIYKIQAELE
Sequence of CBP KIX variant I657A (P45481 586-665 I657A limits assumed): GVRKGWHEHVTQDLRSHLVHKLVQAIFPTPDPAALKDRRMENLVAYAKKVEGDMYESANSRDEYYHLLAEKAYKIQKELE
Sequence of CBP KIX variant Y658A (P45481 586-665 Y658A limits assumed): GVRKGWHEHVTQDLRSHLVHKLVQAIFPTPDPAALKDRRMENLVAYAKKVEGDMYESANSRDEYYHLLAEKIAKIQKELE
Sequence of HisKIX (His-tagged CBP KIX domain) (P45481 586-672): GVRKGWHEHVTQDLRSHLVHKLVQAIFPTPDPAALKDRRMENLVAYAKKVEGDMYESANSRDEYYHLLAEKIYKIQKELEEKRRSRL
Sequence of CBP KIX variant I660A (P45481 586-665 I660A limits assumed): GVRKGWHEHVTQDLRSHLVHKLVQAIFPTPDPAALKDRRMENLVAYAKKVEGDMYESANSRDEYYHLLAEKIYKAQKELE
Sequence of CBP KIX variant LL652-3AA (P45481 other isoform, or with tags, fused parts or gaps mutant limits assumed): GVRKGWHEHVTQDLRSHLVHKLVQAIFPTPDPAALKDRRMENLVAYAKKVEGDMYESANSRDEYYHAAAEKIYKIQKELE
Sequence of CBP KIX variant L599A (P45481 586-665 L599A limits assumed): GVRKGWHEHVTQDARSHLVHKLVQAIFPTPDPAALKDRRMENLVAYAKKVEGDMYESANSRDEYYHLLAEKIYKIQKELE
Sequence of CBP KIX variant K606A (P45481 586-665 K606A limits assumed): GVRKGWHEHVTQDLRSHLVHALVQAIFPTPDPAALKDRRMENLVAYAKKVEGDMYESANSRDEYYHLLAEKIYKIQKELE
Sequence of CBP KIX variant Y650A (Example 20) (P45481 586-665 Y650A limits assumed): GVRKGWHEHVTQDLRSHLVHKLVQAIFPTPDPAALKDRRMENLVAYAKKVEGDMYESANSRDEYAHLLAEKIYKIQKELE
Sequence of CBP KIX variant Y658F (P45481 586-665 Y658F limits assumed): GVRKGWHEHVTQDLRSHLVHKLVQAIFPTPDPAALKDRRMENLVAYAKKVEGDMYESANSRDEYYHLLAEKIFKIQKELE
Sequence of CBP KIX variant Q661A (P45481 586-665 Q661A limits assumed): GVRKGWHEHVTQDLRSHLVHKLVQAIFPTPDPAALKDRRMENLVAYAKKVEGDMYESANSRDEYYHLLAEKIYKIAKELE
Sequence of GST-KIXY650A (Y650A variant of CBP KIX) (P45481 586-665 Y650A limits assumed): as the sequence (P45481 586-665 Y650A limits assumed) above

Regarding KID-B^U, fluorescein-labelled (peptide), the change in polarization in [1] came to 76 mP.

As for “PKI^A21C alkylated with bromoacetamide (peptide)”, the IC50, inhibition of PKA phosphotransferase activity in assay [2] is over 1 µM.

With “Gal4 DBD (residues 1-147) fusion of KID-AB (from UniProt P04386 1-147)”, the fold activation of Gal4 luciferase reporter, with forskolin and exogenous p300 in assay [3] turned out to be 20 fold. The substance also showed a fold activation of Gal4 luciferase reporter in HEK293 cells, with forskolin in [4] of 7.5 fold.

In turn, “KID-AB^U, fluorescein-labelled (peptide)” came in with a change in polarization in assay [5] of 61 mP.

As for “KID-AB^P (full-length CREB KID domain, residues 119-148, phosphorylated), fluorescein-labelled (peptide)”, the Kd in the assay with CBP KIX variant Y658F is 26 µM; with CBP KIX variant L599A, 1.1 µM; in the assay with CBP KIX variant L603A, 3.4 µM; with CBP KIX variant K662A it was 4.8 µM; in the assay with CBP KIX variant I657A it was 1.9 µM; with CBP KIX variant Y658A, 142 µM. Also, the Kd came out at 0.93 µM with CBP KIX variant Q661A; 2.9 µM in assay [7]; 0.71 µM in the assay with CBP KIX variant E655A; 9.4 µM in [8]; 0.27 µM with CBP KIX variant I660A; 2.3 µM in the assay with CBP KIX variant K606A. In addition, the ΔΔG against wild type CBP KIX with CBP KIX variant Y658F stood at 2.5 kcal/mol; with CBP KIX variant L599A, 0.58 kcal/mol; with CBP KIX variant L603A, 1.2 kcal/mol; in the assay with CBP KIX variant K662A it was 1.5 kcal/mol; in the assay with CBP KIX variant I657A, 0.9 kcal/mol; with CBP KIX variant Y658A, 3.5 kcal/mol. Also, the ΔΔG against wild type CBP KIX was 0.48 kcal/mol in the assay with CBP KIX variant Q661A; 1.2 kcal/mol in assay [7]; 0.32 kcal/mol with CBP KIX variant E655A; 1.8 kcal/mol in assay [8]; -0.26 kcal/mol in the assay with CBP KIX variant I660A; 1 kcal/mol in the assay with CBP KIX variant K606A. Further, the fold less stable than the wild type GST-KIX complex in assay [6] was 15 fold.
